In this assay the target is T1, recombinant human Apaf-1(1-591AA)-His (human, UniProt O14727 1-591).
T1 sequence (looked up): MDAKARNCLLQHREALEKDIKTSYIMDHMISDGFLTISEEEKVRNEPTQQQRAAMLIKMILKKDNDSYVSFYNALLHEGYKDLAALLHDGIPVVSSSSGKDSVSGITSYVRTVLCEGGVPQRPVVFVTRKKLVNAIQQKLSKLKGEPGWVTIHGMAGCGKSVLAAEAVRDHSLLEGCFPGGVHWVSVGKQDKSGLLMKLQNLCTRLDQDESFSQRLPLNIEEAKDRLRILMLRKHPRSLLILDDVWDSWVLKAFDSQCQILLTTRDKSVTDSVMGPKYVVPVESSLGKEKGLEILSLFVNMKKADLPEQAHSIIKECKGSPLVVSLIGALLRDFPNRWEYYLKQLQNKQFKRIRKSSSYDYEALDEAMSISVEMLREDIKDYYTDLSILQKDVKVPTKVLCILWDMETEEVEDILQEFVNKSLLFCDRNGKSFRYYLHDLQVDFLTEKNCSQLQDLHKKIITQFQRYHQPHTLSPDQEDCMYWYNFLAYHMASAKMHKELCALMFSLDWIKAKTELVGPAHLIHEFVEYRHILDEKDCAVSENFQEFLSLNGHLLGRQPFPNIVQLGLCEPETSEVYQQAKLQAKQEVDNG
The assay is described as follows: SEC.

Several values for one entry are separate records, joined by “and”; a condition that tells them apart may be missing. Equal values may be shown once.

B1: recombinant human caspase-4 (CARD)-Fc-HA (Fc fusion, UniProt P49662 1-91, looked up)
chain: MAEGNHRKKPLKVLESLGKDFLTGVLDNLVEQNVLNWKEEEKKKYYDAKTEDKVRVMADSMQEKQRMAGQMLLQTFFNIDQISPNKKAHPN
B1: the “stoichiometry N” value is 1.8 molecules of caspase-4 (CARD) for each Apaf (1-591) heptamer and 2.1 molecules of caspase-4 (CARD) for each Apaf (1-591) heptamer.

The record behind these values is doi:10.1101/2020.01.27.921122 (bioRxiv, 2020).
